# Data taken from the DeepSol protein solubility set.
# Assay: soluble on expression in E. coli; label from the status in PepcDB or PDB records
row,Sequence,soluble on expression in E. coli
1,MKLDAKSTIETGKAILGIELGSTRIKAVLIDQENKPIAQGSHTWENQLVNGLWTYSIDAIWSGLQDCYADLRSNVKKLYDTEIETLAAIGVSAMMHGYMPFNEKEEILVPFRTWRNTNTGRAAAELSELFVYNIPLRWSISHLYQAILDNEAHVKDIKFLTTLAGYVHWQITGEKVLGIGDASGMLPIDPTTNNYSAEMVAKFNNLIASKEYSWKLEDILPKVLSAGENAGVLTPEGCKKLDASGHLKAGIPVCPPEGDA,not soluble
2,MKLEASLKHFSPQGMHISDSVKETSPDRLTGTDIMVAIGTTSSRARFGLAAFFGKAGISKTDEQLAVQALVRHAMDTAPKNVRKAAGGEFGWCMLVLAQFAFAEYSRSAATSVTCHTCKGSGRITRTQTTRKVSYPWGKAPYWASKSRAVRPSDWEKWTEVTEIVPAVCEACDGKGTISARCRCGGKGEVLDRIATKERGVPVFKTCERCSGEGYSRVSSATVHRAILKRLPDLHQSSWSRNWKPFYEMLVDVLYKGERQAASEFEKATAY,not soluble
3,MKLEVLPLDQKTFSAYGDVIETQEREFFHINNGLVERYHDLAKVEVLEQDRTLISINRAQPAAMPIVVHELERHPLGTQAFVPMNGEAFVVIVALGDDKPDLSTLRAFISNGRQGVNYHRNVWHHPLFAWQTVTDFLTVDRGGSDNCDVESIPTHELCFALEHHHHHH,soluble
4,MKLIVVTTPTFFVEEDKIITALFEEGLDILHLRKPETPAMYSERLLTLIPEKYHRRIVTHEHFYLKEEFNLMGIHLNARNPSEPHDYAGHVSCSCHSVEEVKNRKHFYDYVFMSPIYDSISKVNYYSTYTAEELREAQKAKIIDSKVMALGGINEDNLLEIKDFGFGGAVVLGDLWNKFDACLDQNYLAVIEHFKKLKKLADLEHHHHHH,soluble
5,MKLLQKQQQQGGGDNQDQNKENNHDKKQPQNNPNNNNQGGQQQPQPSKQDNTQKDQQPRQNEMSRESAEKILKAYEQDEEKTREKVEQMRKQRMKQQKGNSTKQW,not soluble
6,MKLPVPSPMRLAVTHEGRSIIYIPSPEYAVASGRLEPAWLEVFYNPAMEFNRDVSVVAASALRRTGLLTRSGVAFDAHAGVGVRGVRYAVEAGYVKVIMNDINPKASMLAALNARANGLEPGSYMIFNKESNSLMFHLSRERPTPVSLIDIDPYGSPAPFVDAALALSGKGTVVAMTATDLAVLEGGKARAAVRRYMLRSVSKTPVSKETGLRVLLGYVARVAAAHDKAVKPLLAYYADHYYRVYVAVERGARRSDSMLEENLGRLVYCPETGVALALSYAEDPASACGGSYVVAADPAWIGSLGDQAFLEAMLNIAVEAVWLGTRPRVEKLLNTLHGEAPLSPRSIYVSLTSVASKARVNTPKKSKVVELLRSMGYRAVATHFSGEGVRTDAPWGEVLEAVVKLGSSG,soluble
7,MKLQLALDELTLPEAMVFMDKVVDDVDIIEVGTPFLIREGVNAIKAIKEKYPHKEVLADAKIMDGGHFESQLLFDAGADYVTVLGVTDVLTIQSCIRAAKEAGKQVVVDMICVDDLPARVRLLEEAGADMLAVHTGTDQQAAGRKPIDDLITMLKVRRKARIAVAGGISSQTVKDYALLGPDVVIVGSAITHAADPAGEARKISQVLLQHH,soluble
8,MKLTDYVKQVSLEDFGRPFIHHVQWNRRLRSTGGRFFPKDGHLDFNPKVYQELGLDVFRKIVRHELCHYHLYFQGKGYQHKDRDFKELLKAVDGLRFVPSLPNSNSKPIKLYRCQSCQQRYQRKRRIDTQRYRCGLCRGKLLLVNQPEDLEHHHHHH,not soluble
9,MKLVKLSLVAALAAGAFSAANATPLEEAIKDVDVSGVLRYRYDTGNFDKNFVNNSNLNNSKQDHKYRAQVNFSAAIADNFKAFVQFDYNAADGGYGANGIKNDQKGLFVRQLYLTYTNEDVATSVIAGKQQLNLIWTDNAIDGLVGTGVKVVNNSIDGLTLAAFAVDSFMAAEQGADLLEHSNISTTSNQAPFKVDSVGNLYGAAAVGSYDLAGGQFNPQLWLAYWDQVAFFYAVDAAYSTTIFDGINWTLEGAYLGNSLDSELDDKTHANGNLFALKGSIEVNGWDASLGGLYYGDKEKASTVVIEDQGNLGSLLAGEEIFYTTGSRLNGDTGRNIFGYVTGGYTFNETVRVGADFVYGGTKTEAANHLGGGKKLEAVARVDYKYSPKLNFSAFYSYVNLDQGVNTNESADHSTVRLQALYKF,soluble
10,MKMAKSEDERLAEEWAAALGEDPNAPDIDVDEILAAPLEELKNTAPPITDDERRKLDTIMDIPVTISMEVGRSKISIRNLLQLNQGSVVELDRIAGESLDVMVNGTLIAHGEVVVVNDKFGIRLTDVISQTERIKKLR,not soluble
11,MKMKLTAAIIAAFVIIMGCAGGPKASKADELDLAIRDTSDYLNDNIPKGNKIIILNIQSDYASLSDYIIDELIANAVNDKIFKVVDRAQLEQIRAELNFQWSGEVDDKSALEIGKFLGAQTIVTGAISQLADRHRMRIRALNVKTAEVQGQYNRNITTSPMITALMKGGKSTNTSYGGKTRSGNSSGTTGGTSGAKTSQPATPEYKIGDTGPAGGLIFYDKKNNRNGWRYLEAAPANTERETFMSGDSPYSLGNKNLVGDGFENTQNMMKSIEKKGGGIGSAPYYCTNLVVNGFNDWYLPSFDEISLMYTNLHANNLGSFKQRDYWHSSEHGVVWGTYSFAKGEKGQHSYAYDNDKRLTRACRRF,not soluble
12,MKMNEEKAVVVFSGGQDSTTCLFWAKKQFGEVEAVTFDYGQRHRREIDVAQAIADELGVRHTVLDLSLLGQLAPNALTRRDIAIEQKEGELPTTFVDGRNLLFLSFAAVFAKQRGARHIVTGVCETDFSGYPDCRDVFIKSLNVTLNLAMDYEFVIHTPLMWLTKAETWKLADELGALEFIRTKTLTCYNGIIADGCGECPACVLRKRGLDEYLREKEGVESR,not soluble
13,MKNFEIVTVTPDHAEQLISMIHELAEFEKMKSSVVNTAEKLRKDIENKAVHGFIAFIGEEPAGMNLFYYAYSTWVGQYLHMEDLYIRPQFRRMGLARTLWKKLAELARDKGIVRLEWAVLDWNKNAIALYDTVDYVNLTKSEGWFTFRMDGAAINKFADE,not soluble
14,MKNLILVLGCFFFLISCQQTEKEKLEELVKNWNGKEVLFPTNPSFTLYGKTPVDFKIPVSDYKIVTYVDSLGCSSCKLQLPKWKEFMKYADSIVGYQIPVLFFLHPANVREMRSVLKQNRFDYPVCMDTEDTFNKVNKFPSQLNFQTFLLDKNNHVIAIGNPVHNYDVRELYIHLISGGIDGDSLSNMRTVIKIEEDMVDLGSFDWRREQHITFEIHNIGNNNLVVYDNKTSCGCTSVEYSKEPVQPGKSLAVKVTYKADHPEHFNKTIILYCNASASPLELKITGNAK,not soluble
15,MKNMNKYENCLLCPRKCGINRSTGQTGVCGVSSEIKVARAALHYWEEPCISGKRGSGAVFFSGCSLHCVFCQNREISDGKAGKVISKERLSDIFMELADKGANNINLVTPGQYIPDIVWAVNDAKSRGMKLPIIYNTSGYENVTELKLLEGIVDVYLPDFKYMDSTLSARYSRAKDYPSVAKQALSEMVRQQPDVVIDDATGLIQKGVIVRQLLLPGHVNDAKAVLKYLYDTYHDHVYISMMSQFTPIALKDYPEINRTVTRREYERLVDYALEIGITNAFIQEGDVAKDSFIPAFDCEGV,not soluble
16,MKNMTALSPSELPRLIDFLEQRNEFAVYAGRVHIHPVTRFCIYWLLLTMTRIREAALMEWSELDGEVWRIPAERKKERRGHDVPLSRAMRWVLDQARGLNVNGRFVFESVNFQGHINKESPHVAMRRSGLDTTAHGLRSLARTYLREVLKVYNDVAEKLLAHSLGLEHHHHHH,not soluble
17,MKNVGFIGWRGMVGSVLMDRMSQENDFENLNPVFFTTSQAGQKAPVFGGKDAGDLKSAFDIEELKKLDIIVTCQGGDYTNEVYPKLKATGWDGYWVDAASALRMKDDAIIVLDPVNQHVISEGLKKGIKTFVGGNCTVSLMLMAIGGLFEKDLVEWISVATYQAASGAGAKNMRELLSQMGLLEQAVSSELKDPASSILDIERKVTAKMRADNFPTDNFGAALGGSLIPWIDKLLPETGQTKEEWKGYAETNKILGLSDNPIPVDGLCVRIGALRCHSQAFTIKLKKDLPLEEIEQIIASHNEWVKVIPNDKEITLRELTPAKVTGTLSVPVGRLRKLAMGPEYLAAFTVGDQLLWGAAEPVRRILKQLVA,soluble
18,MKPFVPKLVYFEPEALSYPLGQELYEKFTQMGIEIRETTSHNQVRGIPGETELARYRNAKSTLVVGVRRTLKFDSSKPSAEYAIPLATGCMGHCHYCYLQTTLGSKPYIRVYVNLDDIFAQAQKYIDERAPEITRFEAACTSDIVGIDHLTHSLKKAIEFIGATDYGRLRFVTKYEHVDHLLDAKHNGKTRFRFSVNSRYVINHFEPGTSSFDARLQAARKVAGAGYKLGFVVAPIYRHDGWEQGYFELFQELARQLEGVDLSDLTFELIQHRFTKPAKRVIEQRYPKTKLDLDESKRKYKWGRYGIGKYVYRDKEARELEETMCSYIARFFPSAQVQYFT,not soluble
19,MKPLSWSEAFGKGAGRIQASTIRELLKLTQRPGILSFAGGLPAPELFPKEEAAEAAARILREKGEVALQYSPTEGYAPLRAFVAEWIGVRPEEVLITTGSQQALDLVGKVFLDEGSPVLLEAPSYMGAIQAFRLQGPRFLTVPAGEEGPDLDALEEVLKRERPRFLYLIPSFQNPTGGLTPLPARKRLLQMVMERGLVVVEDDAYRELYFGEARLPSLFELAREAGYPGVIYLGSFSKVLSPGLRVAFAVAHPEALQKLVQAKQGADLHTPMLNQMLVHELLKEGFSERLERVRRVYREKAQAMLHALDREVPKEVRYTRPKGGMFVWMELPKGLSAEGLFRRALEENVAFVPGGPFFANGGGENTLRLSYATLDREGIAEGVRRLGRALKGLLALV,soluble
20,MKPRIYVKVKPERLGAVIGPRGEVKAEIMRRTGTVITVDTENSMVIVEPEAEGIPPVNLMKAAEVVKAISLGFPPEKAFRLLEEDQILVVVDLKQVVGDSQNHLKRIKGRIIGEGGRARRTIEEMTDTYINVGEYEVAIIGDYERAMAAKQAIEMLAEGRMHSTVYRHLERIMREIKRRERLKMWAREEL,soluble
21,MKPTKARLRNHVITLKNSVEKEIRAKKTKAIRAHIESEWLKIDPEFEKLHRYFSSLRIRQNVKNELVDLLEENSLEIWSFYRDTDARDFETYKKGFLEKLKYNSIKGLAKVEAVYDQEIQEVRETYNAIIANVERVPAKQGVAYLEELGINVDVFKEEEAQLPMIAVDKSKLRLPSETADSK,not soluble
22,MKQFDKHADAYNVVRGKIAYPDSLYRNLAERAPAREAALDIGCGNGVSTVRLQPWFRYVEGSDLGEALIAKARENYPEIRFSVSPAETFAPQRRFDLVTSATSFYWMDRKQVLTRMADWLTPGGLFCAYKYDFPIAYGPLRDFIEHELVNKWAKHRDPRLTRYDDTLEIMGSCPHLRDCRREVFANIIFLSPEEVALFFLSTSYVTRYIEQEGGEDYADRFIAAVREIESAPQVAVNFDIHAFTALNR,not soluble
23,MKQKRSSSGLKKRIFSTFGKASEERPSLLLLDLPIDILLAITKQLDTETRMIVRKVSPAFRDIIDYQGSGVKTMKIGKDCITIDWKRIEYREGVHCSCLIIYQGHIKTKIYESPQSLMFQDLSILLKSPRIRLSWLDLAPISCTSYNWTGVDVNSIVKILEPIKSRHIERVYFQDINYAEVVLILQKFKAGFLREISLDSEQINGWSIPQIGGMVHLEQWKRAQHLKIHSFVNLDPLINHISHFHTIQLLCQSMSKLQMLKWKEIINTSKTLVKCVLRGNANFAGLARVFDPAFEQAYGNISYVSADEFNCTIRFMPENFCIMKLK,not soluble
